Experiments:
[1] = target: EBNA1 DBD 401-607;TRF2 TRFH domain (Epstein-Barr virus;Homo sapiens?, UniProt P03211;Q15554 401-607;85-287, |); test: EMSA; clear TRFH supershift; EMSA: 10 mM HEPES pH 7.5, 300 mM KCl (100 mM for TRFH), 5 mM MgCl2, 1 mM ZnCl2, 5 mM BME, 0.05% NP-40, 5% glycerol; 5 nM probe; 20 nM EBNA1 in TRF2/Rap1 titrations; 1.4% agarose; temperature not stated; conditions: protein: recombinant;recombinant; tags: His6-SUMO (N-terminal, cleaved by ULP1);GST (N-terminal); chain copies: 4;2; label: 5'-IRD700 on both strands (EMSA); text calls it 60 bp)
[2] = target: EBNA1 459-607;TRF2 TRFH domain (Epstein-Barr virus;Homo sapiens?, UniProt P03211;Q15554 459-607;85-287, |); test: as above; conditions: protein: recombinant;recombinant; tags: ;GST (N-terminal); chain copies: 4;2; label: 5'-IRD700 on both strands (EMSA); text calls it 60 bp)
[3] = target: EBNA1 DBD 401-607;TRF2 full length (Epstein-Barr virus;Homo sapiens?, UniProt P03211;Q15554 401-607;1-542, |); test: EMSA; TRF2 titrated with EBNA1 401-607; binding increased roughly twofold; EMSA: 10 mM HEPES pH 7.5, 300 mM KCl (100 mM for TRFH), 5 mM MgCl2, 1 mM ZnCl2, 5 mM BME, 0.05% NP-40, 5% glycerol; 5 nM probe; 20 nM EBNA1 in TRF2/Rap1 titrations; 1.4% agarose; temperature not stated; conditions: protein: recombinant;recombinant; tags: His6-SUMO (N-terminal, cleaved by ULP1);His6-SUMO (N-terminal, cleaved by ULP1); chain copies: 4;2; label: 5'-IRD700 on both strands (EMSA); text calls it 60 bp)
[4] = target: EBNA1 DBD 401-607;TRF2 full length;Rap1 full length (Epstein-Barr virus;Homo sapiens?;Homo …, UniProt P03211;Q15554;Q9NYB0 401-607;1-542;1-399, ||); test: EMSA; TRF2/Rap1 titrated with EBNA1 401-607; binding increased roughly twofold; EMSA: 10 mM HEPES pH 7.5, 300 mM KCl (100 mM for TRFH), 5 mM MgCl2, 1 mM ZnCl2, 5 mM BME, 0.05% NP-40, 5% glycerol; 5 nM probe; 20 nM EBNA1 in TRF2/Rap1 titrations; 1.4% agarose; temperature not stated; conditions: protein: recombinant;recombinant;recombinant; label: 5'-IRD700 on both strands (EMSA); text calls it 60 bp)
Rap1 full length = target: T1, Rap1 full length (UniProt Q9NYB0 1-399); test: EMSA; up to 480 nM, no EBNA1; EMSA: 10 mM HEPES pH 7.5, 300 mM KCl (100 mM for TRFH), 5 mM MgCl2, 1 mM ZnCl2, 5 mM BME, 0.05% NP-40, 5% glycerol; 5 nM probe; 20 nM EBNA1 in TRF2/Rap1 titrations; 1.4% agarose; temperature not stated; conditions: protein: recombinant; tags: His6-SUMO (N-terminal, cleaved by ULP1); label: 5'-IRD700 on both strands (EMSA); text calls it 60 bp)
T1 sequence: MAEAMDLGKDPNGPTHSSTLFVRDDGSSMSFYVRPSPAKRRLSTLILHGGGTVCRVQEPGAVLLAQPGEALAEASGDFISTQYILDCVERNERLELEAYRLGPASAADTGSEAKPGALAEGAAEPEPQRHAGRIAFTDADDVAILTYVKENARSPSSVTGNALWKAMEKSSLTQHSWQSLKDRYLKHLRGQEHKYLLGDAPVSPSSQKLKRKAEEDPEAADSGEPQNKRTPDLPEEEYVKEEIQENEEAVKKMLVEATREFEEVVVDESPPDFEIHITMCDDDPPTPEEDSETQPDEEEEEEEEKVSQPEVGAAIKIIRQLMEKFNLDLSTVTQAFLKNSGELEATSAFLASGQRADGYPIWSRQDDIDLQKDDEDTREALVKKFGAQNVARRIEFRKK

[5] = target: TRF2 full length;Rap1 full length (Homo sapiens?;Homo sapiens?, UniProt Q15554;Q9NYB0 1-542;1-399, |); test: EMSA; discrete bandshift, no EBNA1; EMSA: 10 mM HEPES pH 7.5, 300 mM KCl (100 mM for TRFH), 5 mM MgCl2, 1 mM ZnCl2, 5 mM BME, 0.05% NP-40, 5% glycerol; 5 nM probe; 20 nM EBNA1 in TRF2/Rap1 titrations; 1.4% agarose; temperature not stated; conditions: protein: recombinant;recombinant; tags: His6-SUMO (N-terminal, cleaved by ULP1);His6-SUMO (N-terminal, cleaved by ULP1); chain copies: 2;2; label: 5'-IRD700 on both strands (EMSA); text calls it 60 bp)

Sequence of EBNA1 DBD 401-607;TRF2 TRFH domain (Q15554 85-287, one chain of several): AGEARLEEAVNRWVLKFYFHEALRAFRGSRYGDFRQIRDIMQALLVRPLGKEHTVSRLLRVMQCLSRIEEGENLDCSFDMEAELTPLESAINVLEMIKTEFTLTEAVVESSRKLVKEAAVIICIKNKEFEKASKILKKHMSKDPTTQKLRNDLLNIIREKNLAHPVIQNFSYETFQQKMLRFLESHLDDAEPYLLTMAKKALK
Sequence of EBNA1 459-607;TRF2 TRFH domain (Q15554 85-287, one chain of several): as above

B1: ½DS (EBV oriP dyad symmetry half) (dsDNA)
DNA 1: TAACCCTAATTCGATAGCATATGCTTCCCGTTGGGTAACATATGCTATTGAATTAGGGTTAG
DNA 2: CTAACCCTAATTCAATAGCATATGTTACCCAACGGGAAGCATATGCTATCGAATTAGGGTTA
Q: What does the source list for B1?
A: binding result [1]: binds; binding result [2]: binds; binding result [3]: binds; binding result [4]: binds; binding result (Rap1 full length): no binding; binding result [5]: binds

— PMC13223232, “Structural basis for TRF2-RAP1 recruitment by EBNA1 at the EBV origin of replication” (Scientific Reports, 2025)
